# Reference: patent publication US20120329067, “Methods of Generating Zinc Finger Nucleases Having Altered Activity” (published 2012)
# B1: E4 binding site (dsDNA)
# DNA 1: GGGGCCGGAGCC
# DNA 2: GGCTCCGGCCCC
# B2: E3 binding site (dsDNA)
# DNA 1: GGGGCCGGA
# DNA 2: TCCGGCCCC
# B3: E6 (E2C) binding site (dsDNA)
# DNA 1: GGGGCCGGAGCCGCAGTG
# DNA 2: CACTGCGGCTCCGGCCCC
# B4: P3/P3 cleavage site, MluI spacer (dsDNA)
# DNA 1: CGCCACTGCACGCGTGCAGTGGCG
# DNA 2: CGCCACTGCACGCGTGCAGTGGCG
# B5: E5 binding site (dsDNA)
# DNA 1: GGGGCCGGAGCCGCA
# DNA 2: TGCGGCTCCGGCCCC
# Tests used:
# [1] = target: E4 zinc finger protein (four C-terminal fingers of E2C) (artificial); experiment: EMSA; settings: tags: no cleavage domain
# Chain of E4 zinc finger protein (four C-terminal fingers of E2C) (artificial) (chain, as listed by the source): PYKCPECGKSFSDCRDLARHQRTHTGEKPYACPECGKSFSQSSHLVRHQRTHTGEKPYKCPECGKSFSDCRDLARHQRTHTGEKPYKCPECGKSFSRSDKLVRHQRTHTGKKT
# [2] = target: E3 zinc finger protein (three C-terminal fingers of E2C) (artificial); experiment: EMSA; settings: tags: no cleavage domain
# Chain of E3 zinc finger protein (three C-terminal fingers of E2C) (artificial) (chain, as listed by the source): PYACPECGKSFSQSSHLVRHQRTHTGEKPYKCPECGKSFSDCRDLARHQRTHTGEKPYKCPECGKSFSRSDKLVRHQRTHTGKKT
# [3] = target: E6 (E2C) six-finger zinc finger protein (artificial); experiment: EMSA; settings: tags: no cleavage domain
# Chain of E6 (E2C) six-finger zinc finger protein (artificial) (chain, as listed by the source): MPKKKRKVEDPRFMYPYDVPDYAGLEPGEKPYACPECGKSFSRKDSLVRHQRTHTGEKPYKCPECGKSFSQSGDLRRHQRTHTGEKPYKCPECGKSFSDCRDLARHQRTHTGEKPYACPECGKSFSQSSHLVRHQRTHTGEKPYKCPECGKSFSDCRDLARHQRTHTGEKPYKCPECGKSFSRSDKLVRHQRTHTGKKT
# P3 ZFN FCD K441E = P3 ZFN FCD K441E (artificial, UniProt P14870 SEQ:1-284, K441E (FokI numbering)); experiment: cell_activity; settings: chain copies: 2 inferred
# Chain of P3 ZFN FCD K441E (P14870 other isoform, or with tags, fused parts or gaps K441E (FokI numbering) | K441E K441E): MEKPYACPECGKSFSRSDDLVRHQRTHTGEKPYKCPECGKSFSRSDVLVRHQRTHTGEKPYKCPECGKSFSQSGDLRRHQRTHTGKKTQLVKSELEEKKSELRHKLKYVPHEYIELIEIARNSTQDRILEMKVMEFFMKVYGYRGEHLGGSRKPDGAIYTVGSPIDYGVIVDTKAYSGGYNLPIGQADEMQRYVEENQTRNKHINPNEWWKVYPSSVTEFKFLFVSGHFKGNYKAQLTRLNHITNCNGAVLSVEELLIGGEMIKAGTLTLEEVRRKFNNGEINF
# P3 ZFN FCD S418P = P3 ZFN FCD S418P (artificial, UniProt P14870 SEQ:1-284, S418P (FokI numbering)); experiment: cell_activity; settings: chain copies: 2 inferred
# Chain of P3 ZFN FCD S418P (P14870 other isoform, or with tags, fused parts or gaps S418P (FokI numbering) | S418P S418P): as the sequence (P14870 other isoform, or with tags, fused parts or gaps K441E (FokI numbering) | K441E K441E) above, with S123P, E146K counted along it
# [4] = target: E5 zinc finger protein (five C-terminal fingers of E2C) (artificial); experiment: EMSA; settings: tags: no cleavage domain
# Chain of E5 zinc finger protein (five C-terminal fingers of E2C) (artificial) (chain, as listed by the source): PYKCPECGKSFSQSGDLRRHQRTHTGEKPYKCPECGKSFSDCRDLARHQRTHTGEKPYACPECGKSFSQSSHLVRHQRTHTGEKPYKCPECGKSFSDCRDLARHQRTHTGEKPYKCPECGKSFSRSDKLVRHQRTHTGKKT
binder,measurement,setting,value
B1,Kd,[1],10.6 nM
B2,Kd,[2],35 nM
B3,Kd,[3],0.85 nM
B4,binding signal,P3 ZFN FCD K441E,> 5 fold of wt FCD activity
same,binding signal,P3 ZFN FCD S418P,> 10 fold of wt FCD activity
B5,Kd,[4],4.2 nM
